The values that follow come from patent publication US7067619 (LA JOLLA CANCER RESEARCH FOUNDATION, dated 2006).

Bridge positions count the residues as written; N and C are the ends. Ends that are not written are not given here. * marks the point of attachment. Cam = NC(=O)C* Bounds are passed on as bounds.

First the molecules themselves.
B1: CRGDCL-displaying phage (peptide)
peptide: CRGDCL
notes: on fuse 5 phage, fused to pIII; also called phage expressing CRGDCL
B2: cyclic peptide GACRGDCLGA (peptide)
peptide: GACRGDCLGA
modifications: disulfide 3-7 (inferred)
notes: synthetic; also called cyclic CRGDCL peptide
B3: Sepharose-coupled GRGDSPK peptide (peptide)
peptide: GRGDSPK
modifications: also: coupled to Sepharose
notes: also called GRGDSPK peptide column
B4: vitronectin purified from human plasma (ligand, UniProt P04004 20-478, looked up)
chain: DQESCKGRCTEGFNVDKKCQCDELCSYYQSCCTDYTAECKPQVTRGDVFTMPEDEYTVYDDGEEKNNATVHEQVGGPSLTSDLQAQSKGNPEQTPVLKPEEEAPAPEVGASKPEGIDSRPETLHPGRPQPPAEEELCSGKPFDAFTDLKNGSLFAFRGQYCYELDEKAVRPGYPKLIRDVWGIEGPIDAAFTRINCQGKTYLFKGSQYWRFEDGVLDPDYPRNISDGFDGIPDNVDAALALPAHSYSGRERVYFFKGKQYWEYQFQHQPSQEECEGSSLSAVFEHFAMMQRDSWEDIFELLFWGRTSAGTRQPQFISRDWHGVPGQVDAAMAGRIYISGMAPRPSLAKKQRFRHRNRKGYRSQRGHSRGRNQNSRRPSRATWLSLFSSEESNLGANNYDDYRMDWLVPATCEPIQSVFFFSGDKYYRVNLRTRRVDTVDPPYPRSIAQYWLGCPAPGHL
notes: also called labeled vitronectin
B5: CVDCILRYLC phage (peptide)
peptide: CVDCILRYLC
notes: on fuse 5 phage, fused to pIII
B6: CKWRSARDLC phage (peptide)
peptide: CKWRSARDLC
notes: as for B5
B7: CGADSEEGPC phage (peptide)
peptide: CGADSEEGPC
notes: as for B5
B8: CREQPASRSC phage (peptide)
peptide: CREQPASRSC
notes: as for B5
B9: CRGDGWC phage (peptide)
peptide: CRGDGWC
modifications: disulfide 1-7 (inferred)
notes: on fuse 5 phage, fused to pIII; also called phage expressing the peptide A*CRGDGWC*G; not shown: The pIII coat protein of the fuse 5 phage vector and its junction residues
B10: CRGDGFC phage (peptide)
peptide: CRGDGFC
modifications: disulfide 1-7 (inferred)
notes: on fuse 5 phage, fused to pIII; not shown: The pIII coat protein of the fuse 5 phage vector and its junction residues
B11: CMWLSVNYSC phage (peptide)
peptide: CMWLSVNYSC
notes: as for B5
B12: cyclic peptide GACRRETAWACGA (peptide)
peptide: GACRRETAWACGA
modifications: disulfide 3-11 (inferred)
B13: cyclic peptide GAC*ELRGDGWC*GA (peptide)
peptide: GACELRGDGWCGA
modifications: disulfide 3-11 (inferred)
B14: GACRRETAWACGA linearized by reduction and alkylation (peptide)
peptide: GAC(Cam)RRETAWAC(Cam)GA
B15: ACRAETAWRC phage (peptide)
peptide: ACRAETAWRC
notes: as for B5
B16: WCRPETGWRC phage (peptide)
peptide: WCRPETGWRC
notes: as for B5
B17: WCREETGWWC phage (peptide)
peptide: WCREETGWWC
notes: as for B5
B18: CRSETYWKC phage (peptide)
peptide: CRSETYWKC
notes: as for B5
B19: ECRRETAWAC phage (peptide)
peptide: ECRRETAWAC
notes: as for B5
B20: ECRRETAWGC phage (peptide)
peptide: ECRRETAWGC
notes: as for B5
B21: HCRRETAWAC phage (peptide)
peptide: HCRRETAWAC
notes: as for B5
B22: ACRRETAWAC phage (peptide)
peptide: ACRRETAWAC
notes: as for B5
B23: ECRRETAWSC phage (peptide)
peptide: ECRRETAWSC
notes: as for B5
B24: GCRKETAWAC phage (peptide)
peptide: GCRKETAWAC
notes: as for B5
B25: GCRRETAWAC phage (peptide)
peptide: GCRRETAWAC
notes: as for B5
B26: VCRKETAWAC phage (peptide)
peptide: VCRKETAWAC
notes: as for B5
B27: ECRRETAWWC phage (peptide)
peptide: ECRRETAWWC
notes: as for B5
B28: GCRRETEWAC phage (peptide)
peptide: GCRRETEWAC
notes: as for B5
B29: SCREETGWGC phage (peptide)
peptide: SCREETGWGC
notes: as for B5
B30: DCRRETAWRC phage (peptide)
peptide: DCRRETAWRC
notes: as for B5
B31: PCREETAWRC phage (peptide)
peptide: PCREETAWRC
notes: as for B5
B32: YCRPETAWAC phage (peptide)
peptide: YCRPETAWAC
notes: as for B5
B33: CRRETAWAC phage (peptide)
peptide: CRRETAWAC
notes: as for B5
B34: WCRGETAWAC phage (peptide)
peptide: WCRGETAWAC
notes: as for B5
B35: RCREETAWAC phage (peptide)
peptide: RCREETAWAC
notes: as for B5
B36: RCRSETAWAC phage (peptide)
peptide: RCRSETAWAC
notes: as for B5
B37: RCREETLWAC phage (peptide)
peptide: RCREETLWAC
notes: as for B5
B38: DCRHETAWAC phage (peptide)
peptide: DCRHETAWAC
notes: as for B5
B39: SCRAETAWMC phage (peptide)
peptide: SCRAETAWMC
notes: as for B5
B40: SCRDETLWWC phage (peptide)
peptide: SCRDETLWWC
notes: as for B5
B41: SCRRETQWHC phage (peptide)
peptide: SCRRETQWHC
notes: as for B5
B42: WCRRETNWAC phage (peptide)
peptide: WCRRETNWAC
notes: as for B5
B43: RCRAETGWAC phage (peptide)
peptide: RCRAETGWAC
notes: as for B5
B44: GCREETAWQC phage (peptide)
peptide: GCREETAWQC
notes: as for B5
B45: DCRRETSWAC phage (peptide)
peptide: DCRRETSWAC
notes: as for B5

Chain of αvβ5 integrin isolated from human placental extract (P06756 31-1048, chain 1 of 2): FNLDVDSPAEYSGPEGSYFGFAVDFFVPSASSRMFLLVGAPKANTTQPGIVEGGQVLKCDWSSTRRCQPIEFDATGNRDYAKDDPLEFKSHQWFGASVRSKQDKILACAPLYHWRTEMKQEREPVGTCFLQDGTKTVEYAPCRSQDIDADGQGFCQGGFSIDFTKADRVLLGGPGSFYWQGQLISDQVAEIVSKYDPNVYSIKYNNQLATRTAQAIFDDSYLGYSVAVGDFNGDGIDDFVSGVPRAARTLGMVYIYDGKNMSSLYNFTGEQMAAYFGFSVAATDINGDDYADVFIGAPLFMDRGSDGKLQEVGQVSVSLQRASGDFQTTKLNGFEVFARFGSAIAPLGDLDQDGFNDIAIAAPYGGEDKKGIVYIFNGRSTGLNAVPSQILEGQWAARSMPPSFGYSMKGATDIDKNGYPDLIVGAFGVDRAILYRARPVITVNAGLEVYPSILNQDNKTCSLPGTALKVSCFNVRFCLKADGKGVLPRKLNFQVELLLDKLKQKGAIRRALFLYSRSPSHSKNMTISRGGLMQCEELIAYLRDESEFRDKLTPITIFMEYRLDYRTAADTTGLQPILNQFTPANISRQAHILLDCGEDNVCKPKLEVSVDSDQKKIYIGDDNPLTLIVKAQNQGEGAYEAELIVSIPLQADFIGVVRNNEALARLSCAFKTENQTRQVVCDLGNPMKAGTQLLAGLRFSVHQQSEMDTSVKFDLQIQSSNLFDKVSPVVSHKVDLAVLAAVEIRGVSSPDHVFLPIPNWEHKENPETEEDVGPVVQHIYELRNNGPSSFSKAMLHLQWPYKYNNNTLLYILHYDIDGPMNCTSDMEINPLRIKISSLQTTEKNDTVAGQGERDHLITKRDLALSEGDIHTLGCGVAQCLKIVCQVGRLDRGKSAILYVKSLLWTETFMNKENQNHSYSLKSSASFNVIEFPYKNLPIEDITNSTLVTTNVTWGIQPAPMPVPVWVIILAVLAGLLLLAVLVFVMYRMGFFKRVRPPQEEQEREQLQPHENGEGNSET
Chain of αvβ5 integrin isolated from human placental extract (P18084 24-799, chain 2 of 2): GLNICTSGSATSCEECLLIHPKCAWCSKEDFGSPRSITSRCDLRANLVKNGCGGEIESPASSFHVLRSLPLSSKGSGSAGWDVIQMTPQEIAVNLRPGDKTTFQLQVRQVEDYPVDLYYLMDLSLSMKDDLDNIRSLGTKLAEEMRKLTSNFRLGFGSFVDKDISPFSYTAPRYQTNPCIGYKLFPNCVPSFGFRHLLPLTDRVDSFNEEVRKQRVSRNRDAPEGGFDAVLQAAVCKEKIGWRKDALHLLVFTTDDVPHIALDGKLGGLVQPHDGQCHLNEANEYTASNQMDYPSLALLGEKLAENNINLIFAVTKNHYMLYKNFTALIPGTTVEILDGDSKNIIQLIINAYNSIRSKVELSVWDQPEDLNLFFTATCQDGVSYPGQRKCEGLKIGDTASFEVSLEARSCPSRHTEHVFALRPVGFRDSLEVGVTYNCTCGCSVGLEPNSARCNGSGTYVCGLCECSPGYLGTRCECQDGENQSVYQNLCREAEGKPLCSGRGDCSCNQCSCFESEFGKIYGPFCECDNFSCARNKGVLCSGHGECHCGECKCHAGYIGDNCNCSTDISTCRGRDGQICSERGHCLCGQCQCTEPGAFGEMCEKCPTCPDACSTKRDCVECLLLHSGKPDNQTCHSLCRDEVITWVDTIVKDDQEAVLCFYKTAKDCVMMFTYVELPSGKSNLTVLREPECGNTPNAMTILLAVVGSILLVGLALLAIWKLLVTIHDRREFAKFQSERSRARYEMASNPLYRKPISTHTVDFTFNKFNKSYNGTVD

The first assay deals with T1, α5β1 integrin isolated from human placental extract (human, UniProt P08648 42-1049; P05556 21-798).
T1 construct: coated on plastic wells or captured by anti-α5 antibody; also called fibronectin receptor
T1 sequence (P08648 42-1049, chain 1 of 2): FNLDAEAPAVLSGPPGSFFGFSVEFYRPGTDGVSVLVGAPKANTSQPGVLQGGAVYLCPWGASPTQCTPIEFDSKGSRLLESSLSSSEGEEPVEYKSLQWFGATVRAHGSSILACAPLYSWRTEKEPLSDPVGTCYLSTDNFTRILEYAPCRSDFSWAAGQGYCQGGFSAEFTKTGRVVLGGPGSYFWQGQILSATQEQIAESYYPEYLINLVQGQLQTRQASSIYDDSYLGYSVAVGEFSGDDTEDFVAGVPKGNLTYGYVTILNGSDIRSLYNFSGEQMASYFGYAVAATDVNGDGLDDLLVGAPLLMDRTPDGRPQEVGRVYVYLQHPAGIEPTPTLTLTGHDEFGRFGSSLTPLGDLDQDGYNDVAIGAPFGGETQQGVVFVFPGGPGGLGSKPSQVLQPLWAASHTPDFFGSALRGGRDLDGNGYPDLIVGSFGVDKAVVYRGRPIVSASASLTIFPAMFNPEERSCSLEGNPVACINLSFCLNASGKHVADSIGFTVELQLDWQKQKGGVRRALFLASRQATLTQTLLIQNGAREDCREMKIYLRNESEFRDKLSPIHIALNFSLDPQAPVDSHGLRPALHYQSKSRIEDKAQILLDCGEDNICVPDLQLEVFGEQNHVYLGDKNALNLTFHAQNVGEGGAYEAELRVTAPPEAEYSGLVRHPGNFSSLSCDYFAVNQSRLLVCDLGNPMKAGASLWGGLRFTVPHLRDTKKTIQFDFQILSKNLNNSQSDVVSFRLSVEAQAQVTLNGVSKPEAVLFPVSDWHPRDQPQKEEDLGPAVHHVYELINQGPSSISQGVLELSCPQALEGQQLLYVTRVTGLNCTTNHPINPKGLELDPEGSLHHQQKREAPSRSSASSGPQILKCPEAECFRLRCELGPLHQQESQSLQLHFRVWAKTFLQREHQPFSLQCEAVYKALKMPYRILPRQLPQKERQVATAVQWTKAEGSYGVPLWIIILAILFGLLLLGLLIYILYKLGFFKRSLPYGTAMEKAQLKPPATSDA
T1 sequence (P05556 21-798, chain 2 of 2): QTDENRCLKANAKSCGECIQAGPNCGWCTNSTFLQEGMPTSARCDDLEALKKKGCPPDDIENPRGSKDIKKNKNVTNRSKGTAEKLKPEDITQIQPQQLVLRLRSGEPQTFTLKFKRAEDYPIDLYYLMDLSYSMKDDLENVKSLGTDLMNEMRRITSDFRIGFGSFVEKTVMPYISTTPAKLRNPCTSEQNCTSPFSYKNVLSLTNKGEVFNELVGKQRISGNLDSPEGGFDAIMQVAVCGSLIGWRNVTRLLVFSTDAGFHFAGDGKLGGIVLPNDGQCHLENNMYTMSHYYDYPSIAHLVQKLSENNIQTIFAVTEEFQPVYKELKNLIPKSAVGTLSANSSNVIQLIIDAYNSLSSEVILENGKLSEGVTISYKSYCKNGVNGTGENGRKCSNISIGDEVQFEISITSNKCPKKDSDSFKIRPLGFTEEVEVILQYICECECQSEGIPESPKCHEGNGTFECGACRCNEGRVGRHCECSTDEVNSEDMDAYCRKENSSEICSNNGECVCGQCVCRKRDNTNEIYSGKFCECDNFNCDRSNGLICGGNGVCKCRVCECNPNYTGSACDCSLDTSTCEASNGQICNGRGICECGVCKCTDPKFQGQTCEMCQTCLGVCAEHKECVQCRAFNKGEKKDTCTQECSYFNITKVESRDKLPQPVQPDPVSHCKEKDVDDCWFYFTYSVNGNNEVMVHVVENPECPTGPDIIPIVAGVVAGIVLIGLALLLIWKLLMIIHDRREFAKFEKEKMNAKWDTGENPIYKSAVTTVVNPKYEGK
Put plainly: phage binding to α5β1-coated wells.
In the case of B1, the binding result is “binds”.

The next assay addresses T1, α5β1 integrin isolated from human …. Put plainly: competition with RRETAWA phage on α5β1-coated wells.
In the case of B2, the binding result was “binds”.

In another assay the target is T2, αvβ3 integrin isolated from human placental extract (human, UniProt P06756 31-1048; P05106 27-788).
T2 construct: isolated on GRGDSPK-Sepharose; said to be primarily αvβ3
T2 sequence (P06756 31-1048, chain 1 of 2): as the sequence (P06756 31-1048, chain 1 of 2) above
T2 sequence (P05106 27-788, chain 2 of 2): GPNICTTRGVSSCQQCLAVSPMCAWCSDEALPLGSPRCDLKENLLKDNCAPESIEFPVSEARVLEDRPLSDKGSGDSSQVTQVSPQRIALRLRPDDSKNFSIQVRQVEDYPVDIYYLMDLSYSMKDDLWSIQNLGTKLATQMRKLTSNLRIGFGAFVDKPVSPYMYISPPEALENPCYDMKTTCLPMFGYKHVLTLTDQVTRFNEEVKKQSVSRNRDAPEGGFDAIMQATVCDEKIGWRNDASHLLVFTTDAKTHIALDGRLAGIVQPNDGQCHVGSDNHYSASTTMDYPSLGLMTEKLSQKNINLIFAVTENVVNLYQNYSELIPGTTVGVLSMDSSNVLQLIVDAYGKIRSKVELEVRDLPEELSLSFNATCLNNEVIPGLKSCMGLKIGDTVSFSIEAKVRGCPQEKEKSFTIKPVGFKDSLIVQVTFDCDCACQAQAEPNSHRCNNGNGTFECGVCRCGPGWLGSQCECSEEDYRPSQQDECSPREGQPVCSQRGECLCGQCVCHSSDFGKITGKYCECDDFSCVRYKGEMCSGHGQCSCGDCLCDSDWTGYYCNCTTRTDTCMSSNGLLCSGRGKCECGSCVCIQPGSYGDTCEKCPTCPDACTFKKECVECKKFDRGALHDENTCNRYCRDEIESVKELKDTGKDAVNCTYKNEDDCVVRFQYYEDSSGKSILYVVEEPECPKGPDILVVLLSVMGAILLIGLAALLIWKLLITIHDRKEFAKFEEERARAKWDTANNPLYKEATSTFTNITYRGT
Put plainly: affinity chromatography of placental extract.
Turning to B3, the binding result is on record as “binds”.

Another assay concerns the target αvβ5 integrin isolated from human placental extract (human, UniProt P06756 31-1048; P18084 24-799). Put plainly: affinity chromatography of placental extract.
For B4, the binding result is on record as “binds”.

A further assay concerns the target T1, α5β1 integrin isolated from human …. As to the kind of experiment: phage panning on coated integrin. On the procedure:
In the first panning, the integrins were coated at 5 µg per well, and the library pool was incubated for 4 hours at 25° C. in TBS buffer containing 1% bovine serum albumin and 1 mM MnCl_2 (α_5β_1, α_vβ_3) 1 mM MgCl_2 ($\alphaIIb\beta_3$) or 1 mM CaCl_2 (α_vβ_5).
As for B5, the binding result is listed as “binds”.

With B6, the binding result is on record as “binds”.

In the case of B7, the binding result is reported as “binds”.

With B8, the binding result is listed as “binds”.

On to B9, for which the binding result is “binds”.

On to B10, for which the binding result is listed as “binds”.

Turning to B11, the binding result is “binds”.

Another assay has as its target T2, αvβ3 integrin isolated from human …. As to the kind of experiment: competition with CRGDCL phage on αvβ3-coated wells. On the procedure:
The ability of […] […] [SEQ ID NO:5] was added to compete for binding. Binding was quantitated as described above.
As to B2, the binding result is recorded as “binds”.

For a further assay, the target named is α5β1 integrin composed of human α5 and CHO β1 on B2/α27 cells (human; Chinese hamster (CHO), UniProt P08648 42-1049). Put plainly: cell-based or functional assay.
Chain of α5β1 integrin composed of human α5 and CHO β1 on B2/α27 cells (P08648 42-1049): as the sequence (P08648 42-1049, chain 1 of 2) above
In the case of B12, the “IC50 of inhibition of cell attachment to fibronectin (B2/α27 cells)” value is 30 µM.

For the molecule B13, the “fold less active than A*CRGDGWC*G, cell attachment to fibronectin” value was 10 fold.

B14: the “fold reduction of activity against the cyclic peptide, cell attachment to fibronectin” value is around 50 ×.

The next assay deals with αvβ1 integrin on CHO cell line B2/v7. Put plainly: cell-based or functional assay.
For B12, the “fold less active than the cyclic RGD peptide, inhibition of cell attachment to fibronectin” value is above 100 × and the “fold less active than …, inhibition of cell attachment to fibronectin” value is around 40 ×.

In another assay the target is T1, α5β1 integrin isolated from human …. As to the kind of experiment: phage panning on coated integrin. The source holds these as a separate data set.
As to B15, the binding result is listed as “binds”.

Take B16: the binding result is “binds”.

Regarding B17, the binding result is “binds”.

For the molecule B18, the binding result is given as “binds”.

For B19, the binding result is listed as “binds”.

Turning to B20, the binding result is “binds”.

Turning to B21, the binding result is given as “binds”.

As for B22, the binding result is reported as “binds”.

In the case of B23, the binding result was “binds”.

Consider B24, for which the binding result is “binds”.

Consider B25, for which the binding result is “binds”.

With B26, the binding result is listed as “binds”.

On to B27, for which the binding result is on record as “binds”.

Consider B28, for which the binding result is on record as “binds”.

Turning to B29, the binding result was “binds”.

In the case of B30, the binding result is “binds”.

Take B31: the binding result is “binds”.

Regarding B32, the binding result is “binds”.

In the case of B33, the binding result is on record as “binds”.

Regarding B34, the binding result was “binds”.

As to B35, the binding result is recorded as “binds”.

Regarding B36, the binding result is “binds”.

In the case of B37, the binding result is listed as “binds”.

B38: the binding result is recorded as “binds”.

Turning to B39, the binding result is “binds”.

Regarding B40, the binding result is recorded as “binds”.

In the case of B41, the binding result is “binds”.

On to B42, for which the binding result is recorded as “binds”.

For B43, the binding result is recorded as “binds”.

Take B44: the binding result was “binds”.

As for B45, the binding result was “binds”.
